Data on 1 molecule can be found in patent US20210340516A1, “COMPOSITIONS CONTAINING ARGINASE 1 FOR THE TREATMENT OF NEUROVASCULAR AND RETINAL VASCULAR DISORDERS” (Augusta University Research Institute, Inc., priority 2020, published 2021).

In assay [1] the test system is WT pups subjected to oxygen-induced retinopathy (OIR). Nature of the assay: OIR mouse model: Western blotting and immunolabelling of retina (A1, cleaved PARP, calbindin horizontal cells). Format: in vivo. The protocol:
Western blotting analysis: Retina lysates were homogenized in RIPA buffer supplemented with protease and phosphatase inhibitors. Samples (20 μg protein) were run on 10% sodium dodecyl sulfate-polyacrylamide gel electrophoresis, transferred to nitrocellulose membrane and reacted with primary antibody followed by horseradish peroxidase-linked secondary antibody and enhanced chemiluminescence (Amersham Pharmacia). β-actin (mouse monoclonal antibody, 1:5000, Sigma-Aldrich) or GAPDH served as a loading control. The following primary antibodies were used: GFAP, PARP, A1.
Immunofluorescence labelling: PFA fixed eyeballs were washed in PBS and cryoprotected. Cryostat sections (15 μm) were permeabilized in 1% Triton (20 min) and blocked in 10% normal goat serum containing 1% BSA (one hour). Sections were then incubated overnight in primary antibodies at 4° C. On day two, the sections were incubated at room temperature for 1 hour in fluorescent conjugated secondary antibodies (Life Technologies), washed in PBS and mounted with Vectashield (Vector Laboratories)
PBS was used as vehicle control. Pups were anesthetized before treatment by intraperitoneal (i.p.) injection of ketamine/xylazine mixture. Intravitreal injections were performed using a 36-gauge NanoFil needle mounted to a 10-μL Hamilton syringe (World Precision Instruments). Two treatment strategies were employed. […]

For assay [2], the system named is mice subjected to optic nerve crush (ONC). As to the kind of experiment: Optic nerve crush (ONC) model of traumatic optic neuropathy: neuroprotection by NeuN labeling. Type of assay: in vivo, mouse. The note with it: 7 days post-ONC, treated at 3 hours and day 4; vehicle group 62%. The method, then:
Mouse retinal ischemia-reperfusion (IR) injury and traumatic optic neuropathy (TON) models: All experiments were performed in accordance with the ARVO Statement for the Use of Animals in Ophthalmic and Vision Research and were approved by the institutional animal care and use committee (Animal Welfare Assurance no. D16-00197). Wild-type (WT) C57BL/6J mice (10-12 weeks old) were anesthetized using ketamine/xylazine mixture then subjected to retinal ischemia-reperfusion (IR) injury or optic nerve crush (ONC) to model traumatic optic neuropathy (TON) as described in Shosha, et al., Cell death & disease, 7:e2483-e (2016) and Xu, et al., Frontiers in Neuroscience, 12:970 (2018). […]
Evaluation of retinal neurodegeneration: Retina flat-mounts and explants were immunolabeled for the neuronal marker, NeuN (Millipore), as previously described in Shosha, et al., Cell death & disease, 7:e2483-e (2016). Images were collected and analyzed in a blinded fashion using a semi-automated method. […] NeuN-positive cells were quantified using ImageJ software ‘Batch processing’ function. […] The macro was validated every time it was used to make sure it is compatible with the set of images being analyzed. […]

B1: PEG-A1: recombinant human arginase (rhArg) covalently attached to methoxy polyethylene glycol (mPEG-SPA; MW 5,000) via succinamide propionic acid (SPA) linker (protein, UniProt P05089 1-322, looked up)
Arginase-1: MSAKSRTIGIIGAPFSKGQPRGGVEEGPTVLRKAGLLEKLKEQECDVKDYGDLPFADIPNDSPFQIVKNPRSVGKASEQLAGKVAEVKKNGRISLVLGGDHSLAIGSISGHARVHPDLGVIWVDAHTDINTPLTTTSGNLHGQPVSFLLKELKGKIPDVPGFSWVTPCISAKDIVYIGLRDVDPGEHYILKTLGIKYFSMTEVDRLGIGKVMEETLSYLLGRKKRPIHLSFDVDGLDPSFTPATGTPVVGGLTYREGLYITEEIYKTGLLSGLDIMEVNPSLGKTPEEVTRTVNTAVAITLACFGLAREGNHKPIDYLNPPK
modifications: mPEG-SPA 5 kDa conjugate
notes: recombinant human arginase (rhArg) covalently attached to methoxy polyethylene glycol (mPEG-SPA; MW 5,000) via succinamide propionic acid (SPA) linker
Consider B1, for which, in assay [1] (P17, compared to vehicle treatment), the “OIR-induced calbindin-positive horizontal cell loss” value is reported as “significantly rescued”. Further, the “cleavage of the pro-apoptotic marker PARP (Western blot)” value in assay [1] (P17 OIR retinal lysates) is reported as “significantly reduced”. Also, the “neuroprotection after ONC (NeuN labeling and quantification)” value in assay [2] turned out to be 78%.
